{"source": "the RNAGym collection of RNA variant scans (doi:10.7554/elife.80360)", "parents": {"B1": {"name": "CPEB3 Ribozyme (parent)", "chain": "GGGGGCCACAGCAGAAGCGUUCACGUCGCGGCCCCUGUCAGAUUCUGGUGAAUCUGCGAAUUCUGCUGU"}}, "data": [{"variants_of": "B1", "experiment": "self-cleavage, relative activity (ratio to wild type); higher = more cleavage; co-transcriptional", "values": [{"variant": "GGGGGCCACAGCAGAAGCGUUCACGUCGCGGCCCCUGUCAGAUUCUGGUAAAUCUGCGACUUCUGCUGU", "note": "[G50A A60C]", "self-cleavage": 0.369}, {"variant": "GGGGGCCACAGCAGAAGCGUUCACGUCGCGGCCCCUGUCAGAUUCUGGCCAAUCUGCGAAUUCUGCUGU", "note": "[U49C G50C]", "self-cleavage": 1.03}, {"variant": "GGGGGCCACAGCAGAAGCGUUCACGUCGCGGCCCCUGUCAGAUUCUGGCUAAUCUGCGAAUUCUGCUGU", "note": "[U49C G50U]", "self-cleavage": 1.03}, {"variant": "GGGGGCCACAGCAGAAGCGUUCACGUCGCGGCCCCUGUCAGAUUCUGGCGAAUCUGCGAAUCCUGCUGU", "note": "[U49C U62C]", "self-cleavage": 0.827}, {"variant": "GGGGGCCACAGCAGAAGCGUUCACGUCGCGGCCCCUGUCAGAUUCUGGCGAAUCUGCGAAUGCUGCUGU", "note": "[U49C U62G]", "self-cleavage": 0.932}, {"variant": "GGGGGCCACAGCAGAAGCGUUCACGUCGCGGCCCCUGUCAGAUUCUGGGGCAUCUGCGAAUUCUGCUGU", "note": "[U49G A51C]", "self-cleavage": 0.939}, {"variant": "GGGGGCCACAGCAGAAGCGUUCACGUCGCGGCCCCUGUCAGAUUCUGGGGAAUCUUCGAAUUCUGCUGU", "note": "[U49G G56U]", "self-cleavage": 0.978}, {"variant": "GGGGGCCACAGCAGAAGCGUUCACGUCGCGGCCCCUGUCAGAUUCUGGGGAAUCUCCGAAUUCUGCUGU", "note": "[U49G G56C]", "self-cleavage": 0.709}, {"variant": "GGGGGCCACAGCAGAAGCGUUCACGUCGCGGCCCCUGUCAGAUUCUGGGGAAUCUACGAAUUCUGCUGU", "note": "[U49G G56A]", "self-cleavage": 0.966}, {"variant": "GGGGGCCACAGCAGAAGCGUUCACGUCGCGGCCCCUGUCAGAUUCUGGCGAAUGUGCGAAUUCUGCUGU", "note": "[U49C C54G]", "self-cleavage": 0.789}, {"variant": "GGGGGCCACAGCAGAAGCGUUCACGUCGCGGCCCCUGUCAGAUUCUGGCGAAUUUGCGAAUUCUGCUGU", "note": "[U49C C54U]", "self-cleavage": 0.965}, {"variant": "GGGGGCCACAGCAGAAGCGUUCACGUCGCGGCCCCUGUCAGAUUCUGGCGAAUCUGCUAAUUCUGCUGU", "note": "[U49C G58U]", "self-cleavage": 0.988}, {"variant": "GGGGGCCACAGCAGAAGCGUUCACGUCGCGGCCCCUGUCAGAUUCUGGCGAAUCUGCAAAUUCUGCUGU", "note": "[U49C G58A]", "self-cleavage": 0.911}, {"variant": "GGGGGCCACAGCAGAAGCGUUCACGUCGCGGCCCCUGUCAGAUUCUGGCGAAUCUCCGAAUUCUGCUGU", "note": "[U49C G56C]", "self-cleavage": 0.778}, {"variant": "GGGGGCCACAGCAGAAGCGUUCACGUCGCGGCCCCUGUCAGAUUCUGGCGAAUCUGUGAAUUCUGCUGU", "note": "[U49C C57U]", "self-cleavage": 0.345}, {"variant": "GGGGGCCACAGCAGAAGCGUUCACGUCGCGGCCCCUGUCAGAUUCUGGCGAAUCUGGGAAUUCUGCUGU", "note": "[U49C C57G]", "self-cleavage": 0.265}, {"variant": "GGGGGCCACAGCAGAAGCGUUCACGUCGCGGCCCCUGUCAGAUUCUGGCGAAUCUGAGAAUUCUGCUGU", "note": "[U49C C57A]", "self-cleavage": 0.216}, {"variant": "GGGGGCCACAGCAGAAGCGUUCACGUCGCGGCCCCUGUCAGAUUCUGGGGAAUCUGCGAAAUCUGCUGU", "note": "[U49G U61A]", "self-cleavage": 0.921}, {"variant": "GGGGGCCACAGCAGAAGCGUUCACGUCGCGGCCCCUGUCAGAUUCUGGGGAAUCUGCGAACUCUGCUGU", "note": "[U49G U61C]", "self-cleavage": 0.802}, {"variant": "GGGGGCCACAGCAGAAGCGUUCACGUCGCGGCCCCUGUCAGAUUCUGGGGAAUUUGCGAAUUCUGCUGU", "note": "[U49G C54U]", "self-cleavage": 0.972}, {"variant": "GGGGGCCACAGCAGAAGCGUUCACGUCGCGGCCCCUGUCAGAUUCUGGGGAAUCUGCGAAUUUUGCUGU", "note": "[U49G C63U]", "self-cleavage": 0.994}, {"variant": "GGGGGCCACAGCAGAAGCGUUCACGUCGCGGCCCCUGUCAGAUUCUGGGGAAUCUGCGAAUUAUGCUGU", "note": "[U49G C63A]", "self-cleavage": 0.952}, {"variant": "GGGGGCCACAGCAGAAGCGUUCACGUCGCGGCCCCUGUCAGAUUCUGGGGAAUCUGCGAAUUGUGCUGU", "note": "[U49G C63G]", "self-cleavage": 0.907}, {"variant": "GGGGGCCACAGCAGAAGCGUUCACGUCGCGGCCCCUGUCAGAUUCUGGUAAAUCUGCGUAUUCUGCUGU", "note": "[G50A A59U]", "self-cleavage": 0.834}, {"variant": "GGGGGCCACAGCAGAAGCGUUCACGUCGCGGCCCCUGUCAGAUUCUGGUAAAUCUGCGGAUUCUGCUGU", "note": "[G50A A59G]", "self-cleavage": 1.02}, {"variant": "GGGGGCCACAGCAGAAGCGUUCACGUCGCGGCCCCUGUCAGAUUCUGGCGAAUCUGCGAAUUAUGCUGU", "note": "[U49C C63A]", "self-cleavage": 0.882}, {"variant": "GGGGGCCACAGCAGAAGCGUUCACGUCGCGGCCCCUGUCAGAUUCUGGCGAAUCUGCGAAUUGUGCUGU", "note": "[U49C C63G]", "self-cleavage": 0.832}, {"variant": "GGGGGCCACAGCAGAAGCGUUCACGUCGCGGCCCCUGUCAGAUUCUGGGGAAUCUGCGAAUUCUGGUGU", "note": "[U49G C66G]", "self-cleavage": 0.908}, {"variant": "GGGGGCCACAGCAGAAGCGUUCACGUCGCGGCCCCUGUCAGAUUCUGGGGAAUCUGCGAAUUCUGUUGU", "note": "[U49G C66U]", "self-cleavage": 0.98}, {"variant": "GGGGGCCACAGCAGAAGCGUUCACGUCGCGGCCCCUGUCAGAUUCUGGCGAAUCUGCGAAGUCUGCUGU", "note": "[U49C U61G]", "self-cleavage": 0.829}, {"variant": "GGGGGCCACAGCAGAAGCGUUCACGUCGCGGCCCCUGUCAGAUUCUGGGGAAUCUGCGCAUUCUGCUGU", "note": "[U49G A59C]", "self-cleavage": 0.68}, {"variant": "GGGGGCCACAGCAGAAGCGUUCACGUCGCGGCCCCUGUCAGAUUCUGGCGAAUCCGCGAAUUCUGCUGU", "note": "[U49C U55C]", "self-cleavage": 0.795}, {"variant": "GGGGGCCACAGCAGAAGCGUUCACGUCGCGGCCCCUGUCAGAUUCUGGCGAAUCAGCGAAUUCUGCUGU", "note": "[U49C U55A]", "self-cleavage": 0.936}, {"variant": "GGGGGCCACAGCAGAAGCGUUCACGUCGCGGCCCCUGUCAGAUUCUGGGGAAUCUGCGAAUCCUGCUGU", "note": "[U49G U62C]", "self-cleavage": 0.923}, {"variant": "GGGGGCCACAGCAGAAGCGUUCACGUCGCGGCCCCUGUCAGAUUCUGGGGAAUCUGCGAAUACUGCUGU", "note": "[U49G U62A]", "self-cleavage": 0.937}, {"variant": "GGGGGCCACAGCAGAAGCGUUCACGUCGCGGCCCCUGUCAGAUUCUGGGGAAUCUGCGAAUGCUGCUGU", "note": "[U49G U62G]", "self-cleavage": 0.898}, {"variant": "GGGGGCCACAGCAGAAGCGUUCACGUCGCGGCCCCUGUCAGAUUCUGGGGAAUCUGCAAAUUCUGCUGU", "note": "[U49G G58A]", "self-cleavage": 0.912}, {"variant": "GGGGGCCACAGCAGAAGCGUUCACGUCGCGGCCCCUGUCAGAUUCUGGGGAAUCUGCGAAUUCUGCAGU", "note": "[U49G U67A]", "self-cleavage": 1.04}, {"variant": "GGGGGCCACAGCAGAAGCGUUCACGUCGCGGCCCCUGUCAGAUUCUGGGGAAUCUGCGAAUUCUGCGGU", "note": "[U49G U67G]", "self-cleavage": 1.05}]}]}
